Test [1] has as its target T1, full-length MITF-M (microphthalmia-associated transcription factor, isoform M) (UniProt O75030-9 1-419).
T1 sequence (looked up): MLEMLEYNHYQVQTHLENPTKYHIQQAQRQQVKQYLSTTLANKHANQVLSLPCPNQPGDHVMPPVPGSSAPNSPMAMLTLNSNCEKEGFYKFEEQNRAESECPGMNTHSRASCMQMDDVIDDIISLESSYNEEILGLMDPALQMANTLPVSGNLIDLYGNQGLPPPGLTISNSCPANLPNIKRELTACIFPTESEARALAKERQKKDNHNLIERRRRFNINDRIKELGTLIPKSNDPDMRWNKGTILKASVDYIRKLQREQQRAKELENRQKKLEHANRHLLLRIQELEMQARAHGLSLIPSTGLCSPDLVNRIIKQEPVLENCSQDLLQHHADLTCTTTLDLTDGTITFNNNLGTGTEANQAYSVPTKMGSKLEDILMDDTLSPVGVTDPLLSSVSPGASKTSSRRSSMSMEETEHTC
Briefly: cell-based or functional assay.

In test [2] the target is T2, full-length MITF-A (microphthalmia-associated transcription factor, isoform A) (UniProt O75030-2 1-520).
T2 sequence (looked up): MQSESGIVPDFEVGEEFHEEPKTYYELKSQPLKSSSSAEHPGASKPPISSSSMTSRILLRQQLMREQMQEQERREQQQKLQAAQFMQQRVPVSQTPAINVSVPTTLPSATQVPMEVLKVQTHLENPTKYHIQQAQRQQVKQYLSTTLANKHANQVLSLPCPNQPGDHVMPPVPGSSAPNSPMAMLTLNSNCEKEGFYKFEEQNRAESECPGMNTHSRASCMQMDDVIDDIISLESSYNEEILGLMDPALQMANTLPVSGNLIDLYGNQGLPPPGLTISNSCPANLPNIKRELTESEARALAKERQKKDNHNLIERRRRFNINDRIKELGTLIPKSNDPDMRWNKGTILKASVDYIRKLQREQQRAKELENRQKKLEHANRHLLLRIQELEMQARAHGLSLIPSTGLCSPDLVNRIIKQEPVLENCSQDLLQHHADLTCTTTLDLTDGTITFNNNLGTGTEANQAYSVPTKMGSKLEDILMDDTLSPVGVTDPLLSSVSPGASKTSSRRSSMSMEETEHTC
Briefly: cell-based or functional assay.

The values below come from PMC3258524, “Regulation of the human tyrosinase gene in retinal pigment epithelium cells: the significance of transcription factor orthodenticle homeobox 2 and its polymorphic binding site” (Molecular Vision, 2012).

B1: full-length OTX2 (orthodenticle homeobox 2) (natural protein)
chain: not shown
For the molecule B1, the “luciferase reporter driven by the human TYR promoter construct -152 (MITF sites, no OTX2 sites) in ARPE-19 cells cotransfected with MITF-M and OTX2; synergism compared with that of MITF-A and OTX2” value in test [1] was ~1.7 fold (against MITF-A). In test [2], the “luciferase reporter driven by the human TYR promoter construct -152 (MITF sites, no OTX2 sites) in ARPE-19 cells cotransfected with MITF-A and OTX2; activation relative to the empty vector” value amounted to 20 fold.
